What all share (assay): fluorescence anisotropy
Data set [1] deals with eIF4GI557-1599;eIF4A (Homo sapiens;Homo sapiens?). As to conditions: 20 mM HEPES-KOH pH 7.6, 200 mM KCl, 1 mM MgCl2, 25 ± 0.5 °C, 10 nM labeled RNA, co-factors 1 µM eIF4A, 1 µM eIF4E, 1 mM ATP (2.5 µM proteins also stated).
For data set [2], the system named is eIF4GI557-1599 (Homo sapiens). As to conditions: 20 mM HEPES-KOH pH 7.6, 200 mM KCl, 1 mM MgCl2, 25 ± 0.5 °C; 10 nM labeled RNA; co-factors 1 µM eIF4A, 1 µM eIF4E, 1 mM ATP (2.5 µM proteins also stated).
Data set [3] has as its system eIF4B (Homo sapiens). As to conditions: 20 mM HEPES-KOH pH 7.6, 200 mM KCl, 1 mM MgCl2, 25 ± 0.5 °C; 10 nM labeled RNA; co-factors 1 µM eIF4A, 1 µM eIF4E, 1 mM ATP (2.5 µM proteins also stated).
In data set [4] the test system is eIF4GI557-1599;eIF4A;eIF4B (Homo sapiens;;Homo sapiens). As to conditions: 20 mM HEPES-KOH pH 7.6, 200 mM KCl, 1 mM MgCl2, 25 ± 0.5 °C, 10 nM labeled RNA, co-factors 1 µM eIF4A, 1 µM eIF4E, 1 mM ATP (2.5 µM proteins also stated).
Data set [5] has as its system eIF4GI682-1599;eIF4E (Homo sapiens;Homo sapiens). As to conditions: 20 mM HEPES-KOH pH 7.6, 200 mM KCl, 1 mM MgCl2, 25 ± 0.5 °C; 10 nM labeled RNA; co-factors 1 µM eIF4A, 1 µM eIF4E, 1 mM ATP (2.5 µM proteins also stated).
The subject of data set [6] is eIF4GI682-1599 (Homo sapiens). As to conditions: 20 mM HEPES-KOH pH 7.6, 200 mM KCl, 1 mM MgCl2, 25 ± 0.5 °C; 10 nM labeled RNA; co-factors 1 µM eIF4A, 1 µM eIF4E, 1 mM ATP (2.5 µM proteins also stated).
The subject of data set [7] is eIF4GI682-1599;eIF4A;eIF4E (Homo sapiens;;Homo sapiens). As to conditions: 20 mM HEPES-KOH pH 7.6, 200 mM KCl, 1 mM MgCl2, 25 ± 0.5 °C; 10 nM labeled RNA; co-factors 1 µM eIF4A, 1 µM eIF4E, 1 mM ATP (2.5 µM proteins also stated).
The subject of data set [8] is eIF4GI682-1599;eIF4A (Homo sapiens;Homo sapiens?). Particulars: 20 mM HEPES-KOH pH 7.6, 200 mM KCl, 1 mM MgCl2, 25 ± 0.5 °C; 10 nM labeled RNA; co-factors 1 µM eIF4A, 1 µM eIF4E, 1 mM ATP (2.5 µM proteins also stated).
The subject of data set [9] is eIF4GI557-1599;eIF4A;eIF4E;eIF4B (Homo sapiens;Homo sapiens?;Homo sapiens;Homo sapiens). As to conditions: 20 mM HEPES-KOH pH 7.6, 200 mM KCl, 1 mM MgCl2, 25 ± 0.5 °C; 10 nM labeled RNA; co-factors 1 µM eIF4A, 1 µM eIF4E, 1 mM ATP (2.5 µM proteins also stated).
Data set [10] relates to eIF4A. Particulars: 20 mM HEPES-KOH pH 7.6, 200 mM KCl, 1 mM MgCl2, 25 ± 0.5 °C; 10 nM labeled RNA; co-factors 1 µM eIF4A, 1 µM eIF4E, 1 mM ATP (2.5 µM proteins also stated).
For data set [11], the system named is eIF4GI557-1599;eIF4A;eIF4E (Homo sapiens;;Homo sapiens). As to conditions: 20 mM HEPES-KOH pH 7.6, 200 mM KCl, 1 mM MgCl2, 25 ± 0.5 °C, 10 nM labeled RNA, co-factors 1 µM eIF4A, 1 µM eIF4E, 1 mM ATP (2.5 µM proteins also stated).
Data set [12] has as its system eIF4GI557-1599;eIF4E (Homo sapiens;Homo sapiens). As to conditions: 20 mM HEPES-KOH pH 7.6, 200 mM KCl, 1 mM MgCl2, 25 ± 0.5 °C; 10 nM labeled RNA; co-factors 1 µM eIF4A, 1 µM eIF4E, 1 mM ATP (2.5 µM proteins also stated).

Where “and” joins values, the source holds several entries; their conditions need not be identical. Equal entries are not always repeated.

Take HIF-1α 5'UTR (uncapped): the equilibrium dissociation constant (Kd) (commonly a measure of binding affinity in units of concentration) came out at 0.013 µM in [1]; 0.017 µM in [1] (no nucleotide); 0.05 µM in data set [2]; 0.054 µM in [3]; 0.017 µM in [4]; 0.014 µM in data set [4] (AMP-PNP). Moreover, the Kd is 0.012 µM in data set [4] (no nucleotide); 0.142 µM in data set [5]; 0.139 µM in data set [6]; 0.021 µM and 0.016 µM in [7]; 0.017 µM and 0.02 µM in [8]; 0.019 µM in [9]. The Kd in data set [10] was 0.252 µM and 0.028 µM; in data set [11], 0.022 µM; in data set [11] (ADP) it was 0.026 µM; in data set [11] (no nucleotide) it was 0.014 µM; in data set [12] it was 0.015 µM.
In the case of FGF-9 5'UTR (uncapped), the Kd in [1] turned out to be 0.014 µM; in data set [1] (no nucleotide) it was 0.016 µM; in [2] it was 0.014 µM; in data set [3], 0.038 µM; in data set [4], 0.019 µM; in data set [4] (AMP-PNP), 0.02 µM. The Kd in data set [4] (no nucleotide) is 0.024 µM; in [5], 0.11 µM; in data set [6], 0.12 µM; in data set [7] it was 0.02 µM and 0.03 µM; in data set [8], 0.026 µM and 0.016 µM; in [9], 0.014 µM. The equilibrium dissociation constant (Kd) is 0.667 µM and 0.115 µM in [10]; 0.018 µM in data set [11]; 0.013 µM in [11] (ADP); 0.015 µM in data set [11] (no nucleotide); 0.016 µM in data set [12].

The record behind these values is PMC11570956.
